In the nanobody polyreactivity screen of Harvey et al. (2022):

Assay: yeast display, Sf9 membrane polyspecificity reagent, FACS + sequencing; frameworks hold sequencing errors
Procedure, shortened: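 Galactose-induced (36–48 hours) yeast carrying a synthetic nanobody display library were exposed to 10% biotinylated, detergent-solubilized Sf9 membrane reagent at 4 °C for 1 hour. FACS followed streptavidin microbead enrichment, using low and high (top ~1%) gates for expression (anti-HA) and reagent binding (streptavidin). Colony PCR, MiSeq 2 × 250 sequencing and CDR-length filtering followed. Labels for polyreactivity reflect the gate of origin.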

Row | Sequence | polyreactivity (PSR sort gate)
1 | QVQLVESGGGLVQAGGSLRLSCAASGSTFESYAMGWYRQAPGKERELVAAISWRVGSTYYADSVKGRFTISRDNAKNTVYLQMNSLKPEDTAVYYCASKGWYSHYGGYDYWGQGTQVTVSS | low polyreactivity
2 | QVQLVESGGGLVQAGGSLRLSCAASGSTFEYNAMGWYRQAPGKERELVASSTNYADSVKGRFTISRDNAKNTVYLQMNSLKPVDTAVYYCAREQGVNRNHDYWGQGTQLTVSS | low polyreactivity
3 | QVQLVESGGGLVQAGGSLRLSCAASGSTFEYNVMGWYRQAPGKERELVASITSDGNTNYSDSVKGRFTISRDNAKNTVYLQMNSLKPEDTAVYYCNFYTWHWTFGMDYWGQGTQVTVSS | low polyreactivity
4 | QVQLVESGGGLVQAGGSLRLSCAASGSTFEYYAMGWDRQAPGKERELVAGISTGGSSNYADSVKGRFTISRDNAKNTVYLQMNSLKPEDTAVYYCNRDWALYVFGSHYHAYYSWGQGTQVTVSS | low polyreactivity
5 | QVQLVESGGGLVQAGGSLRLSCAASGSTFEYYAMGWYRQAPGKEREFVAAITLSGGRTYYADSVKGRFTISRDNAKNTVYLQMNSLKPEDTAVYYCNVVVTWWLPSEYDYWGQGTQVTVSS | high polyreactivity
6 | QVQLVESGGGLVQAGGSLRLSCAASGSTFEYYAMGWYRQAPGKERELVAAISRGGSTYYADSVKGRFTISRDNAKNTVYLQMNSLKPEDTAVYYCAAAPDYRAEYDYWGQGTQVTVSS | low polyreactivity
7 | QVQLVESGGGLVQAGGSLRLSCAASGSTFFAYAMGWYRQAPGKERELVAAITGRGSTYYADSVKGRFSISRDNAKNTVYLQMNSLKPEDTAVYYCAAQRSRRYYRLDYWGQGTQVTVSS | high polyreactivity
8 | QVQLVESGGGLVQAGGSLRLSCAASGSTFFDNAMGWYRQAPGKERELVAAITWNGGRTYYADSVKGRFTISRDNAKNTVYLQMNSLKPEDTAVYYCAKVPLYGRVIYRQPDVYSWGQGTQVTVSS | high polyreactivity
9 | QVQLVESGGGLVQAGGSLRLSCAASGSTFFFNAMGWYRQAPGKERELVASITDTSGRTYYADSVKGRFTISRDNAKNTVYLHMNSLKPEDTAVYYCDKDFDQGGREMDYWGQGTQVTVSS | low polyreactivity
10 | QVQLVESGGGLVQAGGSLRLSCAASGSTFFGYDMGWYRQAPGKERELVASINSGGSTYFADSEKGRFTISRDNPKNTVYLQMNSLKPEDTAVYYCAARPSYLYPYDRTGEYDYWGQGTQVTVSS | high polyreactivity
11 | QVQLVESGGGLVQAGGSLRLSCAASGSTFFIYAMGWYRQAPGKERELVAAISKSGGTTYYADSVKGRFTISRDNAKNTVYLQMNSLKPEDTAVYYCAAYYTKGVARRQFYYWGQGTQVTVSS | high polyreactivity
12 | QVQLVESGGGLVQAGGSLRLSCAASGSTFFIYAMGWYRQAPGKERELVATITKRGGRTYYADSVKGRFTISRDNAKNTVYLQMNSLKPEDTAVYYCAKDLWAVYLPGYDYWGQGTQVTVSS | low polyreactivity
13 | QVQLVESGGGLVQAGGSLRLSCAASGSTFFKYAMGWYRPAPRKERELVAAISYSGGSTYYADSVKGRFTISRDNAKNTVYLQMNSLKPEDTAVYYCAARVQNRYRPYYYWGQGTQVTVSS | high polyreactivity
14 | QVQLVESGGGLVQAGGSLRLSCAASGSTFFKYAMGWYRQAPGKERELVAGITSDGSTNYADSVKGRFTISRDNAKNTVYLQMNSLKPEDTAVYYCAADGSKWGVGTYDYWGQGTQVTVSS | low polyreactivity
15 | QVQLVESGGGLVQAGGSLRLSCAASGSTFFLYAMGWYRQAPGKERELVAAITYTDGDTYYADSVKGRFTISRDNAKNTVYLQMNSLKPEDTAVFYCNAGGDEPVYGSGYDYWGQGTQVTVSS | low polyreactivity
16 | QVQLVESGGGLVQAGGSLRLSCAASGSTFFLYAMGWYRQAPGKERELVASITDGGSTNYADSVKGRFTISRDNAKNTVYLQMNSLKPEDTAVYYCNALARSSRYDYWGQGTQVTVSS | low polyreactivity
17 | QVQLVESGGGLVQAGGSLRLSCAASGSTFFQYAMGWYRQAPGKERELVAAITTSGGRTYYADSVKGRFTISRDNAKNTVYLQMNSLKPEDTAVYYCAGYNYWGQGTQVTVSS | high polyreactivity
